Sequences and labels used below:
B1: Homeobox protein NANOG (Mus musculus), Q80Z64 (parent)
chain: MSVGLPGPHSLPSSEEASNSGNASSMPAVFHPENYSCLQGSATEMLCTEAASPRPSSEDLPLQGSPDSSTSPKQKLSSPEADKGPEEEENKVLARKQKMRTVFSQAQLCALKDRFQKQKYLSLQQMQELSSILNLSYKQVKTWFQNQRMKCKRWQKNQWLKTSNGLIQKGSAPVEYPSIHCSYPQGYLVNASGSLSMWGSQTWTNPTWSSQTWTNPTWNNQTWTNPTWSSQAWTAQSWNGQPWNAAPLHNFGEDFLQPYVQLQQNFSASDLEVNLEATRESHAHFSTPQALELFLNYSVTPPGEI

In this test the parent is B1. The note with it: with sox2_mouse Sox2, P48432.
Chain of sox2_mouse Sox2, P48432 (P48432 whole entry): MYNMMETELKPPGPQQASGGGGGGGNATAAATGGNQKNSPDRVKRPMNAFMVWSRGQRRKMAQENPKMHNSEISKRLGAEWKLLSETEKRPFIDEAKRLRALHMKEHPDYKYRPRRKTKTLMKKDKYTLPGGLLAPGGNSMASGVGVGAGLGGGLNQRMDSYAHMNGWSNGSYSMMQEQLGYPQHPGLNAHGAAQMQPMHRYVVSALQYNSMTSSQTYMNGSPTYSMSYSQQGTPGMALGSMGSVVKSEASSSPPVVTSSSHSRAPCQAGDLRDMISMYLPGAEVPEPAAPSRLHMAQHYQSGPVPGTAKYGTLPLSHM
Take W198A;W203A;W208A;W213A;W218A;W223A;W228A;W233A;W238A;W243A: the “effect of a mutation on the interaction” value is “disrupting interaction”.
